Experimental data from publication PMC6839005.
pKd: −log10 of the molar value.

Tests used:
Experiment in all cases: SPR
[1] = molecular target: Recombinant HIV-1 gp120 SF162 (Clade B) (HIV-1 SF162 (Clade B))
[2] = molecular target: Recombinant HIV-1 gp120 ZM53M.PB12 (HIV-1 ZM53M.PB12 (Clade C))
[3] = molecular target: Human IgG1κ isotype control (human)

Row | Substance | fold increase in affinity compared to AH [1] [fold] | fold increase in affinity compared to AH [2] [fold] | pKd [3]
1 | AvFc (lectibody: Avaren fused to the Fc region of human IgG1) (from UniProt Q9KWN0 47-160) (Fc fusion) | 10 | 10 | –
2 | Neonatal Fc receptor (FcRn) (from UniProt P55899 24-365) | – | – | 7.74
3 | Recombinant human Fc gamma receptor IA (FcγRI, CD64) (from UniProt P12314 16-374) | – | – | 9.96
4 | Recombinant human Fc gamma receptor IIIA (FcγRIIIa, CD16) (from UniProt P08637 17-254) | – | – | 6.17
